Consider one molecule from patent publication CN111217911A (DONGGUAN PENGZHI BIO TECH CO LTD, dated 2020).

As usually defined, the Kd is the equilibrium constant for the complex coming apart. The low end stands for tighter binding, the high end for weaker binding. By koff is commonly meant a measure of how fast the partners let go of each other. The term kon denotes the second-order rate constant of association. A higher kon goes with fast association.

For this assay, the target named is T1, 人胃蛋白酶原II HPGII (fitzgerald, 30R-AP039) (human, UniProt P20142 17-388).
T1 construct: Bought antigen; also called PGⅡ; PGC
T1 sequence (looked up): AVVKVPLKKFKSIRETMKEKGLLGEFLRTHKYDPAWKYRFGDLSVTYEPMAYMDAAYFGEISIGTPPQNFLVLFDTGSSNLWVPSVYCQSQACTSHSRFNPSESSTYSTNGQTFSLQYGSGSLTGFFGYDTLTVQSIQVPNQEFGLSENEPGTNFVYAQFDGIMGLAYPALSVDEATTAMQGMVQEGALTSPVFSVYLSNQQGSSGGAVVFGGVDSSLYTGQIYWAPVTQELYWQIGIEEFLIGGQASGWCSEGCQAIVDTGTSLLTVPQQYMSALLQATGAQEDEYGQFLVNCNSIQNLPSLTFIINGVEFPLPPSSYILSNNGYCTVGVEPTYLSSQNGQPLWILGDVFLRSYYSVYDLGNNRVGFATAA
Kind of assay: BLI, AMC sensor, antibody immobilised, HPGII in solution. On the technique in general: In BLI a coated tip is dipped into the sample, and binding shifts an interference pattern.

B1: Anti-HPG II 11C2 重组抗体 (WT) (antibody, V domains shown)
VH: QIQLVQSGPELKKPGETVKISCKASGYSFTQHGMNWVKQAPGKGLKWMGWINSFTAQPTFADDFRGRFAFSLETSASTAYLQINNLKNEDMATYFCARRGENYIYYYAMDYWGQGTSVTVSS
VL: DVVVTQTPLSLPVSFGDQVSISCRSNQSIAQSYGNTYLSWYLHKPGQSPQLLIYGLSQRFSGVPDRFSGSGSGTDFTLKISTIKPEDLGMYYCLNGSHQPWTFGGGTKLEIK
Regarding B1, the Kd was 5.15 nM, the koff is 0.00181 s⁻¹ and the kon is 351000 M⁻¹ s⁻¹.
